# Patent US6673354B2, “Compositions and methods for treating papillomavirus-infected cells” (priority 1998, dated 2004)
# Where no end group is shown, it is not given here.
# Columns and labels:
# [1] = target: T1, interaction between HPV16 E1 and E2 (Human papillomavirus type 16, UniProt P03114); test: In vitro HPV E1-E2 binding assay (co-immunoprecipitation / Western blot), HPV16 E1 and HPV16 E2; settings: increasing peptide concentrations, FIG. 6A
# T1 construct: made in house; host or cells: Hi-Five insect cells infected with recombinant baculovirus (pVL1392); nuclear extracts
# T1 sequence (P03114 whole entry, looked up): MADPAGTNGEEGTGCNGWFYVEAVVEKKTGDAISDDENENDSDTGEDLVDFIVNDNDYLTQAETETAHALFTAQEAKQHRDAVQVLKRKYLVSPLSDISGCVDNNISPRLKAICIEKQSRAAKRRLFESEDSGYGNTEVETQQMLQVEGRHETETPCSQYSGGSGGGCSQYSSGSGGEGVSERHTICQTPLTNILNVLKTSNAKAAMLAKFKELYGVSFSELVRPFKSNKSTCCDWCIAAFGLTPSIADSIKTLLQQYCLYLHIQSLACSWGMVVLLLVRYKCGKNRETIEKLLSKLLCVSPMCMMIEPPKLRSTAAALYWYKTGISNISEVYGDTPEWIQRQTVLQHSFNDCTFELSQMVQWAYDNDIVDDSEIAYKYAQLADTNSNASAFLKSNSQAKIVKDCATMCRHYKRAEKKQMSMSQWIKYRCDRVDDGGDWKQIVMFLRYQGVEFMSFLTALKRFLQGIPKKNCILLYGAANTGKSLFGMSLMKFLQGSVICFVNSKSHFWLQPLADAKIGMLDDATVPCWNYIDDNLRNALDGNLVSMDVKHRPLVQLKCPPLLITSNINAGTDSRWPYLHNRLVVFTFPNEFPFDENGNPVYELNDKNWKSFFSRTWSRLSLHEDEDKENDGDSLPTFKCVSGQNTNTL
# Procedure: (§1) In vitro HPV E1-E2 binding assay. 300-500 ng protein from HPV16 or HPV11 EE-E1 expressing recombinant baculovirus infected cell nuclear extracts and 80-120 ng from HPV E2 baculovirus infected cell nuclear extracts were incubated in 500 μl NET-gel buffer (50 mM Tris-HCl pH7.5, 150 mM NaCl, 0.1% NP-40, 1 mM EDTA, 0.25% gelatin) at 4° C. for one hour. 1-2 μg anti-EE monoclonal antibody was added and incubated with shaking at 4° C. for one hour. Immune complexes were precipitated with protein-G agarose beads and washed twice for 30 minutes with ice cold NET-gel buffer. Precipitated proteins were detected by Western blot using appropriate primary antibodies and anti-rabbit IgG HRP or anti-mouse IgG HRP (Amersham). Membranes were blocked for one hour in TNET (10 mM Tris 7.5, 2.5 mM EDTA, 50 mM NaCl, 0.1% Tween-20) containing 4% (w/v) dry milk. Washes and antibody reactions were carried out in TNET, and proteins were visualized by chemiluminescence (Reneaissance ECL, NEN) and autoradiography. Bands were quantitated using the NIH image program.
# Therefore, we reasoned that a peptide encompassing this domain of HPV16 E2 might inhibit interaction between HPV16 E1 and E2, thereby inhibiting HPV16 DNA replication (FIG. 5). In order to test this possibility, HPV16 E2 and epitope tagged full length HPV16 E1 (EE16-E1) proteins were expressed separately using baculovirus vectors. EE-E1 and associated E2 proteins were immunoprecipitated using an anti-EE epitope monoclonal antibody. Precipitated E2 was detected by Western blot using polyclonal antiserum raised to the DNA binding domain of HPV16 E2 (35). As shown in lane 2 of FIG. 6A, E2 co-immunoprecipitated with EE16-E1, but was not precipitated by the EE epitope antibody in the absence of EE16-E1 (lane 1). Peptides encompassing HPV16 E2 amino acids 29-51 (E2N-WP23) or residues 33-47 (E2N-WP15) of HPV16 E2 were then tested for inhibition of E1-E2 interaction. These peptide sequences were derived from the sequence of HPV16 E2, and were based on an alignment of amino terminal residues that are conserved among the papillomavirus E2 proteins (FIG. 5). […] Both the HPV16 E2 protein itself and the E2 derived peptides act specifically in these assays, since the E39A replication defective HPV16 E2 mutant bound only slightly to EE16-E1 (lanes 14). […] These peptides are named E2N-MP23 and E2N-MP15, respectively (see FIG. 5). […] We have previously shown that a domain spanning amino acids 421-647 of the HPV16 E1 carboxy terminus is necessary and sufficient for E2 interaction (45).
# [2] = target: T2, interaction between HPV11 E1 and HPV16 E2 (Human papillomavirus 11, UniProt P04014); test: In vitro HPV E1-E2 binding assay, HPV11 E1 and HPV16 E2
# T2 construct: made in house; host or cells: Hi-Five insect cells infected with recombinant baculovirus (HPV-11 EE-E1 virus a gift from Louise Chow); nuclear extracts
# T2 sequence (P04014 whole entry, looked up): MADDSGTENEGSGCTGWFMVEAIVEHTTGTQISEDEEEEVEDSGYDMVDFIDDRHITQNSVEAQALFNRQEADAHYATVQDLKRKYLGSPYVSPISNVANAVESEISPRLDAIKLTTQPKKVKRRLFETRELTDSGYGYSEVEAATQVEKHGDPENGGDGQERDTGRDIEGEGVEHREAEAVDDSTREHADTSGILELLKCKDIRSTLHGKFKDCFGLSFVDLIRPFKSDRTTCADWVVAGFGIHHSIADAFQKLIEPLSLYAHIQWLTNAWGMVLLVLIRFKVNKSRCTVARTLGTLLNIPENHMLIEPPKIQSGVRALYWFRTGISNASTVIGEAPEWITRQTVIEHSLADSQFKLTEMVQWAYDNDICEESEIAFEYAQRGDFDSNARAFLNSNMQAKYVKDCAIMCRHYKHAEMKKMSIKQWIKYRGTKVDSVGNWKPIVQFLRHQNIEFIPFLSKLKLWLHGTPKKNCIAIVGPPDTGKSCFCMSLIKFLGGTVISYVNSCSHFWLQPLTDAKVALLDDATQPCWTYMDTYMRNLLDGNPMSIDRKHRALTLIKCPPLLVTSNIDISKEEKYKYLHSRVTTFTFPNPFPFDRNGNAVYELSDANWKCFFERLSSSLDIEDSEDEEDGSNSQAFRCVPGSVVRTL
# Procedure: as §1
# Very little is known about the physical properties of domains within the papillomavirus E1 and E2 proteins that are involved in intermolecular recognition and association. […] The effect of the E2N-WP15 peptide on these interactions was also assessed. […]
sequence,measurement,setting,value
WKHMRLACAIYYKAR [E2N-MP15],inhibition of HPV16 E1-E2 interaction,[1],did not inhibit E1-E2 interaction at concentrations at which the wild type peptide could do so
same,inhibition of interaction between HPV11 E1 and HPV16 E2,[2],did not inhibit
